These results are taken from patent US20140087995A1 (published 2014).

T1: human calcitonin receptor (human, UniProt P30988 25-474)
T1 construct: whole, on cells; also called hCTR; hCT
T1 sequence (looked up): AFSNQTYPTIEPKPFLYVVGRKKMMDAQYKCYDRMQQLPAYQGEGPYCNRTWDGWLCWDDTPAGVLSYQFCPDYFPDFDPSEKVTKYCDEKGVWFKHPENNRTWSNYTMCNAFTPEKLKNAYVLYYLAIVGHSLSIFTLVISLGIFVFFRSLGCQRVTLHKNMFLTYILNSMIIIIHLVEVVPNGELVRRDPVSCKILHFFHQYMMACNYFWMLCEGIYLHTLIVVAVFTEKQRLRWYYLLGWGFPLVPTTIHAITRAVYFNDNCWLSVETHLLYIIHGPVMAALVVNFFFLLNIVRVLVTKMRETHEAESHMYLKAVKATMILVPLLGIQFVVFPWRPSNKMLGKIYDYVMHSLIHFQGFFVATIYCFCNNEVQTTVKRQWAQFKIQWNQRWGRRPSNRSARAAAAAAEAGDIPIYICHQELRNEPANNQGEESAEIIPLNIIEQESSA

B1: N^ε1-[2-[2-[2-(19-carboxynonadecanoylamino)ethoxy]ethoxy]acetyl]-[Arg17,Pro21,Pro27,His34]-h-amylin (peptide)
peptide: K([AEEA-C20 diacid])CNTATCATQRLANFLRHSSPNFGAIPSSTNVGHNTY-NH2
modifications: disulfide 2-7; N-terminus assumed
SMILES: CC[C@H](C)[C@H](NC(=O)[C@H](C)NC(=O)CNC(=O)[C@H](Cc1ccccc1)NC(=O)[C@H](CC(N)=O)NC(=O)[C@@H]1CCCN1C(=O)[C@H](CO)NC(=O)[C@H](CO)NC(=O)[C@H](Cc1c[nH]cn1)NC(=O)[C@H](CCCNC(=N)N)NC(=O)[C@H](CC(C)C)NC(=O)[C@H](Cc1ccccc1)NC(=O)[C@H](CC(N)=O)NC(=O)[C@H](C)NC(=O)[C@H](CC(C)C)NC(=O)[C@H](CCCNC(=N)N)NC(=O)[C@H](CCC(N)=O)NC(=O)[C@@H](NC(=O)[C@H](C)NC(=O)[C@@H]1CSSC[C@H](NC(=O)[C@@H](N)CCCCNC(=O)COCCOCCNC(=O)CCCCCCCCCCCCCCCCCCC(=O)O)C(=O)N[C@@H](CC(N)=O)C(=O)N[C@@H]([C@@H](C)O)C(=O)N[C@@H](C)C(=O)N[C@@H]([C@@H](C)O)C(=O)N1)[C@@H](C)O)C(=O)N1CCC[C@H]1C(=O)N[C@@H](CO)C(=O)N[C@@H](CO)C(=O)N[C@H](C(=O)N[C@@H](CC(N)=O)C(=O)N[C@H](C(=O)NCC(=O)N[C@@H](Cc1c[nH]cn1)C(=O)N[C@@H](CC(N)=O)C(=O)N[C@H](C(=O)N[C@@H](Cc1ccc(O)cc1)C(N)=O)[C@@H](C)O)C(C)C)[C@@H](C)O
notes: also called compound 91
B2: N^ε1-[2-[2-[2-[[2-[2-[2-[[(4S)-4-carboxy-4-(19-carboxynonadecanoylamino)butanoyl]amino]ethoxy]ethoxy]acetyl]amino]ethoxy]ethoxy]acetyl]-[Arg17,Pro21,Pro27,His34 … (peptide)
peptide: K([AEEA-AEEA-γGlu-C20 diacid])CNTATCATQRLANFLRHSSPNFGAIPSSTNVGHNTY-NH2
modifications: disulfide 2-7; N-terminus assumed
SMILES: CC[C@H](C)[C@H](NC(=O)[C@H](C)NC(=O)CNC(=O)[C@H](Cc1ccccc1)NC(=O)[C@H](CC(N)=O)NC(=O)[C@@H]1CCCN1C(=O)[C@H](CO)NC(=O)[C@H](CO)NC(=O)[C@H](Cc1c[nH]cn1)NC(=O)[C@H](CCCNC(=N)N)NC(=O)[C@H](CC(C)C)NC(=O)[C@H](Cc1ccccc1)NC(=O)[C@H](CC(N)=O)NC(=O)[C@H](C)NC(=O)[C@H](CC(C)C)NC(=O)[C@H](CCCNC(=N)N)NC(=O)[C@H](CCC(N)=O)NC(=O)[C@@H](NC(=O)[C@H](C)NC(=O)[C@@H]1CSSC[C@H](NC(=O)[C@@H](N)CCCCNC(=O)COCCOCCNC(=O)COCCOCCNC(=O)CC[C@H](NC(=O)CCCCCCCCCCCCCCCCCCC(=O)O)C(=O)O)C(=O)N[C@@H](CC(N)=O)C(=O)N[C@@H]([C@@H](C)O)C(=O)N[C@@H](C)C(=O)N[C@@H]([C@@H](C)O)C(=O)N1)[C@@H](C)O)C(=O)N1CCC[C@H]1C(=O)N[C@@H](CO)C(=O)N[C@@H](CO)C(=O)N[C@H](C(=O)N[C@@H](CC(N)=O)C(=O)N[C@H](C(=O)NCC(=O)N[C@@H](Cc1c[nH]cn1)C(=O)N[C@@H](CC(N)=O)C(=O)N[C@H](C(=O)N[C@@H](Cc1ccc(O)cc1)C(N)=O)[C@@H](C)O)C(C)C)[C@@H](C)O
notes: also called compound 97
B3: N^ε1-[(4S)-4-carboxy-4-(19-carboxynonadecanoylamino)butanoyl]-[Arg17,Pro21,Pro27,His34]-h-amylin (peptide)
peptide: K([γGlu-C20 diacid])CNTATCATQRLANFLRHSSPNFGAIPSSTNVGHNTY-NH2
modifications: disulfide 2-7; N-terminus assumed
SMILES: CC[C@H](C)[C@H](NC(=O)[C@H](C)NC(=O)CNC(=O)[C@H](Cc1ccccc1)NC(=O)[C@H](CC(N)=O)NC(=O)[C@@H]1CCCN1C(=O)[C@H](CO)NC(=O)[C@H](CO)NC(=O)[C@H](Cc1c[nH]cn1)NC(=O)[C@H](CCCNC(=N)N)NC(=O)[C@H](CC(C)C)NC(=O)[C@H](Cc1ccccc1)NC(=O)[C@H](CC(N)=O)NC(=O)[C@H](C)NC(=O)[C@H](CC(C)C)NC(=O)[C@H](CCCNC(=N)N)NC(=O)[C@H](CCC(N)=O)NC(=O)[C@@H](NC(=O)[C@H](C)NC(=O)[C@@H]1CSSC[C@H](NC(=O)[C@@H](N)CCCCNC(=O)CC[C@H](NC(=O)CCCCCCCCCCCCCCCCCCC(=O)O)C(=O)O)C(=O)N[C@@H](CC(N)=O)C(=O)N[C@@H]([C@@H](C)O)C(=O)N[C@@H](C)C(=O)N[C@@H]([C@@H](C)O)C(=O)N1)[C@@H](C)O)C(=O)N1CCC[C@H]1C(=O)N[C@@H](CO)C(=O)N[C@@H](CO)C(=O)N[C@H](C(=O)N[C@@H](CC(N)=O)C(=O)N[C@H](C(=O)NCC(=O)N[C@@H](Cc1c[nH]cn1)C(=O)N[C@@H](CC(N)=O)C(=O)N[C@H](C(=O)N[C@@H](Cc1ccc(O)cc1)C(N)=O)[C@@H](C)O)C(C)C)[C@@H](C)O
notes: also called compound 77
B4: N^-1-[(4S)-4-carboxy-4-(19-carboxynonadecanoylamino)butanoyl]-Gly[Arg1,His14,Arg17,Pro21,Pro27,His34]-h-amylin (peptide)
peptide: {C20 diacid-γGlu}-GRCNTATCATQRLAHFLRHSSPNFGAIPSSTNVGHNTY-NH2
modifications: disulfide 3-8
SMILES: CC[C@H](C)[C@H](NC(=O)[C@H](C)NC(=O)CNC(=O)[C@H](Cc1ccccc1)NC(=O)[C@H](CC(N)=O)NC(=O)[C@@H]1CCCN1C(=O)[C@H](CO)NC(=O)[C@H](CO)NC(=O)[C@H](Cc1c[nH]cn1)NC(=O)[C@H](CCCNC(=N)N)NC(=O)[C@H](CC(C)C)NC(=O)[C@H](Cc1ccccc1)NC(=O)[C@H](Cc1c[nH]cn1)NC(=O)[C@H](C)NC(=O)[C@H](CC(C)C)NC(=O)[C@H](CCCNC(=N)N)NC(=O)[C@H](CCC(N)=O)NC(=O)[C@@H](NC(=O)[C@H](C)NC(=O)[C@@H]1CSSC[C@H](NC(=O)[C@H](CCCNC(=N)N)NC(=O)CNC(=O)CC[C@H](NC(=O)CCCCCCCCCCCCCCCCCCC(=O)O)C(=O)O)C(=O)N[C@@H](CC(N)=O)C(=O)N[C@@H]([C@@H](C)O)C(=O)N[C@@H](C)C(=O)N[C@@H]([C@@H](C)O)C(=O)N1)[C@@H](C)O)C(=O)N1CCC[C@H]1C(=O)N[C@@H](CO)C(=O)N[C@@H](CO)C(=O)N[C@H](C(=O)N[C@@H](CC(N)=O)C(=O)N[C@H](C(=O)NCC(=O)N[C@@H](Cc1c[nH]cn1)C(=O)N[C@@H](CC(N)=O)C(=O)N[C@H](C(=O)N[C@@H](Cc1ccc(O)cc1)C(N)=O)[C@@H](C)O)C(C)C)[C@@H](C)O
notes: also called compound 100
B5: N^-1-[(4S)-4-carboxy-4-(19-carboxynonadecanoylamino)butanoyl]-Gly[Arg1,Ala14,Arg17,Pro21,Pro27,His34]-h-amylin (peptide)
peptide: {C20 diacid-γGlu}-GRCNTATCATQRLAAFLRHSSPNFGAIPSSTNVGHNTY-NH2
modifications: disulfide 3-8
SMILES: CC[C@H](C)[C@H](NC(=O)[C@H](C)NC(=O)CNC(=O)[C@H](Cc1ccccc1)NC(=O)[C@H](CC(N)=O)NC(=O)[C@@H]1CCCN1C(=O)[C@H](CO)NC(=O)[C@H](CO)NC(=O)[C@H](Cc1c[nH]cn1)NC(=O)[C@H](CCCNC(=N)N)NC(=O)[C@H](CC(C)C)NC(=O)[C@H](Cc1ccccc1)NC(=O)[C@H](C)NC(=O)[C@H](C)NC(=O)[C@H](CC(C)C)NC(=O)[C@H](CCCNC(=N)N)NC(=O)[C@H](CCC(N)=O)NC(=O)[C@@H](NC(=O)[C@H](C)NC(=O)[C@@H]1CSSC[C@H](NC(=O)[C@H](CCCNC(=N)N)NC(=O)CNC(=O)CC[C@H](NC(=O)CCCCCCCCCCCCCCCCCCC(=O)O)C(=O)O)C(=O)N[C@@H](CC(N)=O)C(=O)N[C@@H]([C@@H](C)O)C(=O)N[C@@H](C)C(=O)N[C@@H]([C@@H](C)O)C(=O)N1)[C@@H](C)O)C(=O)N1CCC[C@H]1C(=O)N[C@@H](CO)C(=O)N[C@@H](CO)C(=O)N[C@H](C(=O)N[C@@H](CC(N)=O)C(=O)N[C@H](C(=O)NCC(=O)N[C@@H](Cc1c[nH]cn1)C(=O)N[C@@H](CC(N)=O)C(=O)N[C@H](C(=O)N[C@@H](Cc1ccc(O)cc1)C(N)=O)[C@@H](C)O)C(C)C)[C@@H](C)O
B6: N^ε1-[(4S)-4-carboxy-4-[[(4S)-4-carboxy-4-(19-carboxynonadecanoylamino)butanoyl]amino]butanoyl]-[Arg17,Pro21,Pro27,His34]-h-amylin (peptide)
peptide: K([γGlu-γGlu-C20 diacid])CNTATCATQRLANFLRHSSPNFGAIPSSTNVGHNTY-NH2
modifications: disulfide 2-7; N-terminus assumed
SMILES: CC[C@H](C)[C@H](NC(=O)[C@H](C)NC(=O)CNC(=O)[C@H](Cc1ccccc1)NC(=O)[C@H](CC(N)=O)NC(=O)[C@@H]1CCCN1C(=O)[C@H](CO)NC(=O)[C@H](CO)NC(=O)[C@H](Cc1c[nH]cn1)NC(=O)[C@H](CCCNC(=N)N)NC(=O)[C@H](CC(C)C)NC(=O)[C@H](Cc1ccccc1)NC(=O)[C@H](CC(N)=O)NC(=O)[C@H](C)NC(=O)[C@H](CC(C)C)NC(=O)[C@H](CCCNC(=N)N)NC(=O)[C@H](CCC(N)=O)NC(=O)[C@@H](NC(=O)[C@H](C)NC(=O)[C@@H]1CSSC[C@H](NC(=O)[C@@H](N)CCCCNC(=O)CC[C@H](NC(=O)CC[C@H](NC(=O)CCCCCCCCCCCCCCCCCCC(=O)O)C(=O)O)C(=O)O)C(=O)N[C@@H](CC(N)=O)C(=O)N[C@@H]([C@@H](C)O)C(=O)N[C@@H](C)C(=O)N[C@@H]([C@@H](C)O)C(=O)N1)[C@@H](C)O)C(=O)N1CCC[C@H]1C(=O)N[C@@H](CO)C(=O)N[C@@H](CO)C(=O)N[C@H](C(=O)N[C@@H](CC(N)=O)C(=O)N[C@H](C(=O)NCC(=O)N[C@@H](Cc1c[nH]cn1)C(=O)N[C@@H](CC(N)=O)C(=O)N[C@H](C(=O)N[C@@H](Cc1ccc(O)cc1)C(N)=O)[C@@H](C)O)C(C)C)[C@@H](C)O
notes: also called compound 86

Numbered stars: 1 amine (or outer) side, 2 acyl side, 3 side chain; on linkers, the order of the positions; unused ones are H or OH. Bridge positions count the residues as written; N and C are the ends. Side chains are listed from the residue outwards. Ends that are not written are not given here. * marks the point of attachment. C20 diacid = O=C(O)CCCCCCCCCCCCCCCCCCC(=O)*; γGlu = O=C(O)[C@H](CCC(=O)[*:2])N[*:1]; AEEA = NCCOCCOCC(=O)O

In the first assay the target is T1, human calcitonin receptor. Kind of assay: SPA radioligand competition (125I-calcitonin), membranes of BHK cells with human calcitonin receptor. In short, it runs like this:
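BHK hCTR membranes 35 ng/μL + SPA beads 0.05 mg/well; buffer 50 mM Hepes pH 7.4, 1 mM CaCl2, 5 mM MgCl₂, 0.1% OA, 0.02% Tween20. 120 min, 25° C., shaking. Scintillation count; IC50 by one-site binding competition.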
In general terms: Loss of bound radioactivity is the signal in a displacement assay; it reports binding, not function.
One may read the IC50 as the midpoint of a concentration-inhibition curve. Take B1: the IC50 was found to be 12 nM.
On the same count and under the same terms, the result for B2 reads 58.9 nM; that for B3, 50.7 nM; that for B4, 66.3 nM.
Still for that read-out and setting: the result for B5 reads 29.2 nM.
Consider B6, for which the IC50 is 133 nM.

The target of another assay is T1, human calcitonin receptor. Put plainly: ratio of IC50 at human calcitonin receptor to IC50 at human amylin receptor (SPA competition assays). Put shortly:
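Membranes (35 ng/μL final) + SPA beads, 50 mM Hepes pH 7.4 buffer with 1 mM CaCl2, 5 mM MgCl₂, 0.1% OA, 0.02% Tween20; 120 min, 25° C, shaking; centrifuged, counted; IC₅₀ by one-site binding competition.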
As to B1, the “Ratio hCT/hAmylin binding” value turned out to be 101.
In the case of B2, the “Ratio hCT/hAmylin binding” value worked out at 104.
B3: the “Ratio hCT/hAmylin binding” value turned out to be 118.
Turning to B4, the “Ratio hCT/hAmylin binding” value came to 65.3.
The same measure, in the same setting: the value for B5 was 68.6; that for B6 was 159.
